Test results taken from the supplement of paper PMC9732359.
± gives the uncertainty stated by the source.

Assay: protein stability index of a GFP-peptide fusion (yeast GPS) (PSI 1-4); higher = more stable; sorted into four equal gates, so the index is relative within each strain
Outline: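 Plasmids isolated from each sorting gate were PCR-amplified and Illumina-sequenced, and barcodes assigned the reads to strains. The gates, four of equal size, were set by GFP/Cherry fluorescence ratio on mid-log cultures in leucine-free medium. These cultures were yeast carrying a pooled library of tiled 17-residue yeast protein peptides fused downstream of GFP on a plasmid that also expresses Cherry. The protein stability index is the sum of every gate's read frequency times its gate number.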

Sequence	protein stability index (doa10∆)	protein stability index (pdr5∆)	protein stability index (san1∆)	protein stability index (ubr1∆)
IWFPEDFISPELIIDKV [MED1]	2.68 ± 0.068	2.66 ± 0.069	3.01 ± 0.075	2.94 ± 0.044
AIITDDLDTVLKKDIES [SRP72]	1.99 ± 0.047	2.32 ± 0.047	2.43 ± 0.061	2.43 ± 0.049
PVFHKKAKTTKKVVLRL [RPL42A]	2.95 ± 0.11	1.92 ± 0.091	2.25 ± 0.094	1.98 ± 0.14
HFENAKVIDLDTKLKAH [YIL149C/MLP2]	2.62 ± 0.073	2.73 ± 0.086	2.09 ± 0.11	2.48 ± 0.073
AVPRDELGRSNYGMIAI [FAS1]	2.97 ± 0.17	3.16 ± 0.15	3.28 ± 0.071	3.33 ± 0.22
NINNSSVAEKEEIRSQI [SWI3]	2.64 ± 0.072	2.19 ± 0.077	2.2 ± 0.075	2.51 ± 0.059
RCWKANIPWDVPGMPAP [PRP8]	2.15 ± 0.081	1.5 ± 0.077	1.28 ± 0.12	2.73 ± 0.18
IKLGSTAIGIATKEGVV [PUP2]	1.54 ± 0.11	1.63 ± 0.18	1.34 ± 0.26	1.32 ± 0.11
LIIDEIHLLHDDRGPVL [BRR2]	2.98 ± 0.1	2.98 ± 0.1	3.23 ± 0.046	2.88 ± 0.099
YISAELYAQLRENGLVP [SNU114]	2.38 ± 0.068	2.21 ± 0.071	2.48 ± 0.1	2.73 ± 0.058
IWNDVVYGEGTSRVTGI [YJL039C/NUP192]	3.35 ± 0.15	3.4 ± 0.17		3.45 ± 0.091
MFNDLNSMDISMFSGLD [MED2]	3.18 ± 0.06	3.26 ± 0.054	3.15 ± 0.037	3.12 ± 0.052
STFREWKNLVLKLSQAF [YJR042W/NUP85]	2.85 ± 0.079	2.37 ± 0.096	2.64 ± 0.068	2.74 ± 0.076
DQWYCIDKLEDLSRIMD [ITC1]	2.65 ± 0.26	2.64 ± 0.22		
TISVPQIRDVMERFSVL [RRP6]	2.58 ± 0.094	2.7 ± 0.097	2.5 ± 0.12	2.68 ± 0.13
PKFFLGEENRVRFIGDS [QCR2]	3.17 ± 0.1	3.15 ± 0.11	3.07 ± 0.073	3.2 ± 0.069
LQKEKELHKEGTISKLE [SMC2]	2.89 ± 0.075	3.08 ± 0.08	1.83 ± 0.06	2.5 ± 0.05
TFNNQDKGLLPYAIMET [RPO31]	1.99 ± 0.067	2.46 ± 0.085	1.44 ± 0.075	1.48 ± 0.058
KLWFQLSESLTKFFDDA [RPN9]	3.02 ± 0.083	3.24 ± 0.099	3.02 ± 0.066	3.17 ± 0.097
IKIEDFVDDMLRDYRFE [SNF5]	3 ± 0.068	3.16 ± 0.073	3.1 ± 0.067	2.97 ± 0.078
KDRIIDERTKEFEKKLQ [YIL149C/MLP2]	3.23 ± 0.21	3.06 ± 0.19	2.94 ± 0.086	3.42 ± 0.1
KESDLLEETRTTIGDTT [BRN1]	2.47 ± 0.051	3.18 ± 0.064	2.99 ± 0.053	3.19 ± 0.055
GLESQIQEIKESVELPL [RPT2]	2.11 ± 0.087	2.3 ± 0.073	2.48 ± 0.067	2.83 ± 0.072
ESSNEAKKTIQNPLNKS [SIR4]	3.12 ± 0.071	2.76 ± 0.059	2.95 ± 0.047	3.11 ± 0.05
LLKKATKPEVASDMSDE [CDC53]	2.67 ± 0.11	2.61 ± 0.14	2.84 ± 0.086	2.89 ± 0.11
TAQEINFKMLVLLATWN [IRR1]	1.84 ± 0.039	2.04 ± 0.047	2.14 ± 0.051	1.83 ± 0.031
KKHLKRLAAPHHWLLDK [RPS4A]	2.78 ± 0.14	2.58 ± 0.078	3.18 ± 0.08	3.01 ± 0.072

Sequence	protein stability index (doa10∆)	protein stability index (pdr5∆)	protein stability index (san1∆)	protein stability index (ubr1∆)
LLNINGSRKVAGILRGY [SMX2]	2.64 ± 0.14	1.67 ± 0.12	2.25 ± 0.14	1.52 ± 0.14
PAIPPVIDLEKIKFDES [BRR2]	2.85 ± 0.093	2.84 ± 0.093	2.67 ± 0.086	2.77 ± 0.082
FLVLYDVKTAEEASQLI [NUT1]	1.45 ± 0.047	1.93 ± 0.077	2.78 ± 0.061	3.01 ± 0.047
FLKEVLSDLSSPVQDWN [YML103C/NUP188]	2.92 ± 0.088	3.03 ± 0.097	2.76 ± 0.11	2.96 ± 0.068
FVCEKSIEFAKREKRVF [RPN6]				2.41 ± 0.25
STLEPTLRKELEQIQVQ [YIL149C/MLP2]	2.75 ± 0.096	3.01 ± 0.088	2.89 ± 0.062	2.3 ± 0.048
QCLRFLKETVIPSLANN [POP6]	1.49 ± 0.065	1.63 ± 0.11	1.92 ± 0.16	2.09 ± 0.051
RHMALLVDVMTTQGGLT [RPO21]	1.92 ± 0.15	2.38 ± 0.092	2.44 ± 0.09	
TSAHLKLKEMQKVLNAH [SMC4]	2.41 ± 0.13	2.76 ± 0.17	2.63 ± 0.096	1.97 ± 0.085
TERVVEIGPSPTLAGMA [FAS2]	2.501 ± 0.018	2.599 ± 0.017	2.496 ± 0.019	2.496 ± 0.012
KEEFIMMVNISVLISIP [PCI8]	1.43 ± 0.037	1.33 ± 0.033	1.57 ± 0.074	1.36 ± 0.031
QQLLKGLSLSFSKKLDL [DSN1]	3.13 ± 0.076	3.1 ± 0.088	2.74 ± 0.069	3.16 ± 0.075
VSFDFNGVPGQALDAVR [MED8]	3.1 ± 0.077	3.36 ± 0.079	3.32 ± 0.079	3.36 ± 0.061
NGILPDDELMNWRRLSG [SSN2]	2.97 ± 0.087	2.9 ± 0.073	2.98 ± 0.11	3.19 ± 0.091
NFIVHSPMLKRIKITAN [GRR1]	1.48 ± 0.072	1.2 ± 0.075	1.29 ± 0.13	1.19 ± 0.061
LFAESHDVLQKLNTLSE [YML103C/NUP188]	2.77 ± 0.067	3.17 ± 0.072	3.06 ± 0.065	3 ± 0.05
ISKHSKQAIYTRATASE [RPS25A]	1.98 ± 0.056	2.03 ± 0.045	1.97 ± 0.072	1.85 ± 0.039
GYFIINGSEKVLIAQER [RPB2]	3.14 ± 0.21	2.94 ± 0.17	3.16 ± 0.18	2.15 ± 0.26
DALQDVEESSEKKQKTE [DPB4]	3.2 ± 0.082	3.42 ± 0.076	3.21 ± 0.048	3.18 ± 0.052
IVDGKLKTEKIFKEINE [FAS1]	1.76 ± 0.074	1.85 ± 0.13	1.91 ± 0.11	1.91 ± 0.091
SKELRAQYGIKALPIRR [RPL26A]	3.44 ± 0.19	3.41 ± 0.17	3.49 ± 0.14	
HFFSKSCSFFAKLSDTL [NUT1]	2.06 ± 0.047	1.77 ± 0.041	1.69 ± 0.085	1.95 ± 0.035
SEDHSFRKIKLRVDEVQ [RPS1A]	3.1 ± 0.12	3.16 ± 0.11	3.1 ± 0.071	3.22 ± 0.071
QSISGTLELSAQFRVPR [SWP82]	2.46 ± 0.077	2.77 ± 0.069	2.52 ± 0.084	2.79 ± 0.066
KAKRSNLYTPKAEMPPE [PRP8]	2.98 ± 0.084	3.05 ± 0.081	2.84 ± 0.063	2.89 ± 0.077
SVRGAIVGPDLAVLALV [RPS6A]	1.18 ± 0.041	1.46 ± 0.06	1.14 ± 0.11	1.38 ± 0.045
